Data: patent US20110312897A1, “CATHEPSIN L PROTEOLYTICALLY PROCESSES HISTONE H3 DURING MOUSE EMBRYONIC STEM CELL DIFFERENTIATION” (THE ROCKEFELLER UNIVERSITY, priority 2008, published 2011)

B1: recombinant mouse Cathepsin L: recombinant mouse Cathepsin L enzyme (R&D Systems, # 1515-CY-010) (protein)
chain: TPKFDQTFSAEWHQWKSTHRRLYGTNEEEWRRAIWEKNMRMIQLHNGEYSNGQHGFSMEMNAFGDMTNEEFRQVVNGYRHQKHKKGRLFQEPLMLKIPKSVDWREKGCVTPVKNQGQCGSCWAFSASGCLEGQMFLKTGKLISLSEQNLVDCSHAQGNQGCNGGLMDFAFQYIKENGGLDSEESYPYEAKDGSCKYRAEFAVANDTGFVDIPQQEKALMKAVATVGPISVAMDASHPSLQFYSSGIYYEPNCSSKNLDHGVLLVGYGYEGTDSNKNKYWLVKNSWGSEWGMEGYIKIAKDRDNHCGLATAASYPVVN
B2: Cathepsin K: recombinant Cathepsin K (Calbiochem Cat. No. 342001) (protein, UniProt P43235 115-329, looked up)
Cathepsin K: APDSVDYRKKGYVTPVKNQGQCGSCWAFSSVGALEGQLKKKTGKLLNLSPQNLVDCVSENDGCGGGYMTNAFQYVQKNRGIDSEDAYPYVGQEESCMYNPTGKAAKCRGYREIPEGNEKALKRAVARVGPVSVAIDASLTSFQFYSKGVYYDESCNSDNLNHAVLAVGYGIQKGNKHWIIKNSWGENWGNKGYILMARNKNNACGIANLASFPKM

Tested on: rH3-HIS
Test: H3 cleavage assay with recombinant cathepsins
Format: biochemical, mouse
Method: Extracts were incubated in buffer (10 mM HEPES, 10 mM KCl, 1.5 mM MgCl2, 0.34M sucrose, 10% glycerol, 5 mM β-mercaptoethanol, all final) with 0.1 μg/μl rH3-HIS (purified from E. coli) and incubated at 37° C. for 1-3 hours. Reactions were stopped by addition of 5×SDS sample buffer and boiling; results were analyzed by immunoblotting with HIS-HRP and/or H3.cs1 antibody. For MS analysis, reactions were quenched by addition of 0.1% (final) TFA. rCathepsin L (R&D Systems, # 1515-CY-010), rCathepsin B (R&D Systems Cat No. BAF965), and rCathepsin K (Calbiochem Cat. No. 342001) were purchased from commercial sources and tested in the assay with rH3-HIS.
To further validate the identification of Cathepsin L as an H3 protease, recombinant mouse Cathepsin L enzyme was tested in the H3 cleavage assay (FIG. 5). […] To further characterize the sites of proteolytic cleavage, the reaction products of rCathepsin L and rH3-HIS were analyzed by MS. […] Also observed in both reactions were five of the six complementary N-terminal peptides generated by rCathepsin L cleavage of H3 (left), and their abundances correlated, as expected, with that of their C-terminal counterparts. […] In addition, the relative abundances of the in vivo H3 cleavage sites and those produced by Cathepsin L in vitro are highly correlative. […] Taken together, the above data support the conclusion that Cathepsin L is capable of generating all of the histone H3.2 fragments observed at day three following induction of ESC differentiation by retinoic acid.
Other cathepsin family members were then tested in the H3 cleavage assay. rCathepsin B, one of the most abundant lysosomal proteases, and rCathepsin K, which is reported to have a significant preference for leucine in the P2 position of its substrates much like Cathepsin L, were chosen to be tested first (Cathepsin S also shares this preference but was not found to have significant expression in our ESC model). Following pre-activation the recombinant enzymes, Cathepsins B, K, and L were incubated with rH3-HIS at both pH 5.5. and pH 7.5, and the reactions were then analyzed by immunoblotting with both HIS and H3.cs1 antibodies.

[1] = pre-activated enzymes, pH 5.5 and pH 7.5

Molecule	cleavage of recombinant histone H3 (pH 5.5 and pH 7.4)	generation of epitope recognized by H3.cs1 antibody (pH 5.5 and pH 7.4)	rH3-HIS cleavage pattern [1]	H3.cs1 epitope production [1]
B1	able to cleave recombinant histone H3	created the specific epitope	cleaves rH3-HIS robustly	–
B2	–	–	–	less abundant
